Blank lines part the entries; values can stand above or below the binder they belong to.
Assays:
Sra1 = Sra1 (human, UniProt Q7L576 1-1253); assay: reconstitution and co-purification of subcomplexes and pentamer
WAVE1(1-230) = molecular target: T1, WAVE1(1-230) (human, UniProt Q92558 1-230); assay: as above
T1 sequence: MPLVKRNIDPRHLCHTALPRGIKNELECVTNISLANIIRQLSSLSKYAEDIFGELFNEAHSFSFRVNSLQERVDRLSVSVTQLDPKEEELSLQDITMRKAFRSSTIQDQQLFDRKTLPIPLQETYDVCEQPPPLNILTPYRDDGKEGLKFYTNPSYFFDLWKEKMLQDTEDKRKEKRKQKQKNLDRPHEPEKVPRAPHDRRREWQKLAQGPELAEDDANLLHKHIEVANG

[1] = molecular target: ∆WRC230 with Sra1 W845A/Y849A (∆M#3) (human, UniProt Q7L576;Q9Y2A7;Q92558;Q9NYB9;Q8WUW1, W845A | Y849A); assay: pull-down
Sra1/Nap1 dimer = Sra1/Nap1 dimer (human, UniProt Q7L576;Q9Y2A7); assay: reconstitution and co-purification of subcomplexes and pentamer
Chain of Sra1/Nap1 dimer (Q7L576 whole entry, one chain of several): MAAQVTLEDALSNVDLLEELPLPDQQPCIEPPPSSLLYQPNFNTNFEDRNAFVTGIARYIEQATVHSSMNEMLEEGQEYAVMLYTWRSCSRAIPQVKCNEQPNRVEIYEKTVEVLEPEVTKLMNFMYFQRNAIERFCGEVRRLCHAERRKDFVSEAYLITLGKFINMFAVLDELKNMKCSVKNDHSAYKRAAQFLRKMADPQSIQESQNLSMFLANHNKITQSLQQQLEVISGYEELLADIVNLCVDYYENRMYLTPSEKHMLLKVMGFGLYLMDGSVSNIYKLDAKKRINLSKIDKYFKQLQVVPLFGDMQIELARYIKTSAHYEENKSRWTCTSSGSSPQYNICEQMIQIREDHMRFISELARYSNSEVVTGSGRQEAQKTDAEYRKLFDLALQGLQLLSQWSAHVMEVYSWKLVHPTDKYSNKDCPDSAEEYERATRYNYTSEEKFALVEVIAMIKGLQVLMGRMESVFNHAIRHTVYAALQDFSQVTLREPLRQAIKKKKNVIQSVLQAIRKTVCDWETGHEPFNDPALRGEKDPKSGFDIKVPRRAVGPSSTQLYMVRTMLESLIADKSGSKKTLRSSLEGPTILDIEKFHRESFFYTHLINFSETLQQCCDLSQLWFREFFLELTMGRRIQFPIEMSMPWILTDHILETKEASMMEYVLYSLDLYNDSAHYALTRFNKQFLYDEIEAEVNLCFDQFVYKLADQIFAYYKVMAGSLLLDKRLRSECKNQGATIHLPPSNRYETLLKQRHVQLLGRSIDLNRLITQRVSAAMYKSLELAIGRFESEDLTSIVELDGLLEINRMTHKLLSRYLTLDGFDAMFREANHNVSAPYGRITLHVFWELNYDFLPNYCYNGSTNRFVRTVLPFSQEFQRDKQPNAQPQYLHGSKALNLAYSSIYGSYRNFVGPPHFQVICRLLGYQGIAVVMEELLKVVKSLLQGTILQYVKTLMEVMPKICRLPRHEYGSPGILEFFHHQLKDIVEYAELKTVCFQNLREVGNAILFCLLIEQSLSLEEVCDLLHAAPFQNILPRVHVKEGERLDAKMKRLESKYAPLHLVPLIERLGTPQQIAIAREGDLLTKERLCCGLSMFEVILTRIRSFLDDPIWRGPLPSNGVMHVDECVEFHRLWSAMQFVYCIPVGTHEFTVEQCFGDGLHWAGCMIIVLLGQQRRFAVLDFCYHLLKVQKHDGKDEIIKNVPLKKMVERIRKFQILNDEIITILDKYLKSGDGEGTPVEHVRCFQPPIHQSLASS

Chain of Sra1 (Q7L576 whole entry): as the sequence (Q7L576 whole entry, one chain of several) above
Chain of ∆WRC230 with Sra1 W845A/Y849A (∆M#3) (Q7L576 whole entry W845A/Y849A, one chain of several): as the sequence (Q7L576 whole entry, one chain of several) above, with W845A, Y849A counted along it

B1: Nap1 (natural protein)
chain: MSRSVLQPSQQKLAEKLTILNDRGVGMLTRLYNIKKACGDPKAKPSYLIDKNLESAVKFIVRKFPAVETRNNNQQLAQLQKEKSEILKNLALYYFTFVDVMEFKDHVCELLNTIDVCQVFFDITVNFDLTKNYLDLIITYTTLMILLSRIEERKAIIGLYNYAHEMTHGASDREYPRLGQMIVDYENPLKKMMEEFVPHSKSLSDALISLQMVYPRRNLSADQWRNAQLLSLISAPSTMLNPAQSDTMPCEYLSLDAMEKWIIFGFILCHGILNTDATALNLWKLALQSSSCLSLFRDEVFHIHKAAEDLFVNIRGYNKRINDIRECKEAAVSHAGSMHRERRKFLRSALKELATVLSDQPGLLGPKALFVFMALSFARDEIIWLLRHADNMPKKSADDFIDKHIAELIFYMEELRAHVRKYGPVMQRYYVQYLSGFDAVVLNELVQNLSVCPEDESIIMSSFVNTMTSLSVKQVEDGEVFDFRGMRLDWFRLQAYTSVSKASLGLADHRELGKMMNTIIFHTKMVDSLVEMLVETSDLSIFCFYSRAFEKMFQQCLELPSQSRYSIAFPLLCTHFMSCTHELCPEERHHIGDRSLSLCNMFLDEMAKQARNLITDICTEQCTLSDQLLPKHCAKTISQAVNKKSKKQTGKKGEPEREKPGVESMRKNRLVVTNLDKLHTALSELCFSINYVPNMVVWEHTFTPREYLTSHLEIRFTKSIVGMTMYNQATQEIAKPSELLTSVRAYMTVLQSIENYVQIDITRVFNNVLLQQTQHLDSHGEPTITSLYTNWYLETLLRQVSNGHIAYFPAMKAFVNLPTENELTFNAEEYSDISEMRSLSELLGPYGMKFLSESLMWHISSQVAELKKLVVENVDVLTQMRTSFDKPDQMAALFKRLSSVDSVLKRMTIIGVILSFRSLAQEALRDVLSYHIPFLVSSIEDFKDHIPRETDMKVAMNVYELSSAAGLPCEIDPALVVALSSQKSENISPEEEYKIACLLMVFVAVSLPTLASNVMSQYSPAIEGHCNNIHCLAKAINQIAAALFTIHKGSIEDRLKEFLALASSSLLKIGQETDKTTTRNRESVYLLLDMIVQESPFLTMDLLESCFPYVLLRNAYHAVYKQSVTSSA
binding result (Sra1): binds

B2: HSPC300 (natural protein)
chain: MAGQEDPVQREIHQDWANREYIEIITSSIKKIADFLNSFDMSCRSRLATLNEKLTALERRIEYIEARVTKGETLT
binding result (WAVE1(1-230)): binds

The remaining lines, values ahead:

binding result [1]: binds
B3: GST-Arf1 (Arf1^∆N17) (natural protein)
chain: not shown

binding result (WAVE1(1-230)): binds
B4: Abi2(1-158) (domain or fragment)
chain: MAELQMLLEEEIPGGRRALFDSYTNLERVADYCENNYIQSADKQRALEETKAYTTQSLASVAYLINTLANNVLQMLDIQASQLRRMESSINHISQTVDIHKEKVARREIGILTTNKNTSRTHKIIAPANLERPVRYIRKPIDYTILDDIGHGVKWLLR

binding result (Sra1/Nap1 dimer): binds
B5: WAVE1(1-230)/Abi2(1-158)/HSPC300 trimer (complex)
chain 1: MPLVKRNIDPRHLCHTALPRGIKNELECVTNISLANIIRQLSSLSKYAEDIFGELFNEAHSFSFRVNSLQERVDRLSVSVTQLDPKEEELSLQDITMRKAFRSSTIQDQQLFDRKTLPIPLQETYDVCEQPPPLNILTPYRDDGKEGLKFYTNPSYFFDLWKEKMLQDTEDKRKEKRKQKQKNLDRPHEPEKVPRAPHDRRREWQKLAQGPELAEDDANLLHKHIEVANG
chain 2: MAELQMLLEEEIPGGRRALFDSYTNLERVADYCENNYIQSADKQRALEETKAYTTQSLASVAYLINTLANNVLQMLDIQASQLRRMESSINHISQTVDIHKEKVARREIGILTTNKNTSRTHKIIAPANLERPVRYIRKPIDYTILDDIGHGVKWLLR
chain 3: MAGQEDPVQREIHQDWANREYIEIITSSIKKIADFLNSFDMSCRSRLATLNEKLTALERRIEYIEARVTKGETLT
